Measurements published in patent publication EP4541444A1.

Columns and labels:
[1] = biological target: AAV9 viral particles (adeno-associated virus serotype 9); assay: SPR (Biacore), biotinylated ligand on SA chip, AAV9 2E12 vp/ml
[2] = biological target: epidermal growth factor receptor (Example 4A) (UniProt P00533); assay: SPR (Biacore), fusion on CM5 chip, EGFR 200 nM
[3] = biological target: EGFR (SinoBiological, 10001-H08H) (UniProt P00533); assay: SPR (Biacore), fusion on CM5 chip, EGFR 200 nM
[4] = biological target: AAV9 viral particles (adeno-associated virus serotype 9); assay: SPR (Biacore), ligand amine coupled to CM5 chip, AAV9 2E12 vp/ml
trastuzumab-GFP = assay: SPR (Biacore), fusion on CM5 chip, 2 µM Fc block, then trastuzumab-eGFP 1 µM

B1: 2B-1 (VHH)
chain: QVQLQQSGGGSVQAGGSLRLSCTISGRTLSDYTMGWFRQRPGKEREFVAAISWSGAYTKYADSVKGRFTISRDNAKNTVYLQMNSLKPEDTAVYYCAAGPTGLLSKKATPADYDYWGQGTQVTVSSQASAEAAAKEAAAKAGQVQLQQSGGGSVQAGGSLRLSCTISGRTLSDYTMGWFRQRPGKEREFVAAISWSGAYTKYADSVKGRFTISRDNAKNTVYLQMNSLKPEDTAVYYCAAGPTGLLSKKATPADYDYWGQGTQVTVSSQASAEAAAKEAAAKAGQVQLQQSGGGSVQAGGSLRLSCTISGRTLSDYTMGWFRQRPGKEREFVAAISWSGAYTKYADSVKGRFTISRDNAKNTVYLQMNSLKPEDTAVYYCAAGPTGLLSKKATPADYDYWGQGTQVTVSSQASHHHHHHC
- AAV9 capacity (2E12 vp/ml) [1]: 13400 RU

B2: 4A-5 (VHH)
VHH: QVQLQQSGGGSVQAGGSLRLSCTISGRTFSSYAMGWFRQRPGKEREFVAAINWSSGSTYYADSVKGRFTISRDNAKNTVYLQMNSLKPEDTAVYYCAAGYQINSGNYNFKDYEYDYWGQGTQVTVSS
- Binding capacity EGFR (200 nM) [2]: 2350 RU

B3: 4B-4 (VHH)
VHH: QVQLQQSGGGSVQAGGSLRLSCTISGRTFSSYAMGWFRQRPGKEREFVAAINWSSGSTYYADSVKGRFTISRDNAKNTVYLQMNSLKPEDTAVYYCAAGYQINSGNYNFKDYEYDYWGQGTQVTVSS
- Binding capacity EGFR (200 nM) [3]: 1900 RU

B4: 2A-1 (VHH)
VHH: QVQLQQSGGGSVQAGGSLRLSCTISGRTLSDYTMGWFRQRPGKEREFVAAISWSGAYTKYADSVKGRFTISRDNAKNTVYLQMNSLKPEDTAVYYCAAGPTGLLSKKATPADYDYWGQGTQVTVSS
- AAV9 capacity (2E12 vp/ml) [4]: 11300 RU

B5: 4B-5 (VHH)
VHH: QVQLQESGGGLVQPGGSLRLSCAASGRTSINPYMAWFRQAPGKQREFVAAISSGGVYTYYTDSVKGRFTISRDNAKTTVYLQMNSLKPEDTAVYYCAADFRRGGNWNVDPFRYDYQYWGQGTQVTVSS
- Binding capacity trastuzumab-eGFP (1 µM) (trastuzumab-GFP): 4300 RU

B6: 4B-6 (VHH)
VHH: QVQLQQSGGGSVQAGGSLRLSCTISGRTSINPYMAWFRQRPGKEREFVAAISSGGVYTYYADSVKGRFTISRDNAKNTVYLQMNSLKPEDTAVYYCAADFRRGGNWNVDPFRYDYDYWGQGTQVTVSS
- Binding capacity trastuzumab-eGFP (1 µM) (trastuzumab-GFP): 3910 RU
